Laboratory results from article PMC4902875 (ACS chemical biology, 2016).

Biological target: the molecule itself
Experiment: crystal structure

B1: BexE (enzyme, Amycolotopsis orientalis sp. vinerea, UniProt D7RFJ3 1-487, looked up)
chain: MDAPVVIAGAGPAGLMLAGELRLAGIGVVVLERLPARTGESRGLGFTARTMEVFDQRGLLRRFGEVQTSDQGHFGGIPVDFGLLDGAHQAAKTIPQSATEAVLEAWAGELGADIRRGHELTGVRDDGDGVAVTVRGPAGEHVLRAGWLVGCDGGRSAVRKAVGFDFPGTAATREMFLADLRGVELEPRMIGESLPGGMVMVGPLPGGVTRIIVCERDAPPRRRTGPPPFHEVADAWKRITGIDISAAEPVWLSAFGDATRQVTEYRRGRVLLAGDAAHVHLPAGGQGMNAGIQDAVNLGWKLAAVVRGTARADLLDTYHGERHPVGVRLLMNTRAQGLLFLNGAEMQPLRDVLAELTGYPDVARHLAAMVSGLEIAYDVGGGSHPWLGRRLPRLELDRGGRPSSTAELLRPARGLLLDFAGNAALRDRAAPWAGRIDVVTARPAAGRVPGATTAVLVRPDGHVAWAAPGTHADLPMALERWFGPAPR
B1: binds.
